T1: Fc-tagged recombinant soluble LAG-3 (IMP321) (human, UniProt P18627 23-434)
T1 construct: also called LAG3-Ig molecule IMP321; recombinant sLAG-3; not shown: Fc / Ig part
T1 sequence (looked up): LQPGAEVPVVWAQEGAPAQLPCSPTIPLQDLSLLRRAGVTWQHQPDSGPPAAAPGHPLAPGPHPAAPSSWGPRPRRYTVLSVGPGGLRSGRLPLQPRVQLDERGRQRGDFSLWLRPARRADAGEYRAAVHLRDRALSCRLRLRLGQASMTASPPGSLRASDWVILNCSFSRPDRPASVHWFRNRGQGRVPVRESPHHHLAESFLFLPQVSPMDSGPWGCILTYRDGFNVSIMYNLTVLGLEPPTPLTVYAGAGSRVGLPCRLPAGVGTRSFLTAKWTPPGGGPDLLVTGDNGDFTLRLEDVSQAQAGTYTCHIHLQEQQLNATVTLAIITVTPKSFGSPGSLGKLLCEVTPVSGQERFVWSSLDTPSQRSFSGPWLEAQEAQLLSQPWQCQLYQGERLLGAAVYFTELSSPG


What follows are binders tested against T1, Fc-tagged recombinant soluble LAG-3 … (assay: SPR Biacore 3000, off-rate comparison with IMP731, IMP321 analyte at 64 nM).
Procedure: The binding kinetics of the purified antibodies for a sLAG-3 molecule were assessed by SPR using a Biacore™ 3000. A goat anti-human kappa antibody (Southern Biotech, Catalogue No. 2060-01) was immobilised on a CM5 chip by primary amine coupling. Humanised anti-LAG3 antibodies were captured on this surface and the LAG3-Ig molecule IMP321 (Chrystelle Brignone, Caroline Grygar, Manon Marcu, Knut Schakel, Frederic Triebel, The Journal of Immunology, 2007, 179: 4202-4211) used as the analyte at 64 nM with a buffer injection (i.e. 0 nM) used to double reference the binding curves. Regeneration was with 10 mM Glycine, pH1.5. The run was carried out on the Biacore™ 3000, using HBS-EP as running buffer and at 25° C. Sensorgrams were normalised for binding at maximal association and off-rates compared against IMP731 by visual inspection of the sensorgram profiles.

Row | Binder | Rank order of off-rates
1 | H1L7 (antibody, human IgG1, kappa, V domains shown, Humanised anti-LAG-3 variant, HEK 293 6E expressed) VH: QVQLQESGPGLVKPSETLSLTCTVSGFSLTAYGVNWIRQPPGKGLEWIGMIWDDGSTDYNSALKSRVTISVDTSKNQFSLKLSSVTAADTAVYYCAREGDVAFDYWGQGTLVTVSS VL: DIQMTQSPSSLSASVGDRVTITCKSSQSLLNPSNQKNYLAWYQQKPGKAPKLLVYFASTRDSGVPSRFSGSGSGTDFTLTISSLQPEDFATYYCLQHFGTPPTFGQGTKLEIKR | 2
2 | J7L7 (antibody, human IgG1, kappa, V domains shown, Humanised anti-LAG-3 variant, HEK 293 6E expressed) VH: QVQLVQSGAEVKKPGSSVKVSCKASGFSLTAYGVNWVRQAPGQGLEWMGMIWDDGSTDYNSALKSRVTITADKSTSTAYMELSSLRSEDTAVYYCAREGDVAFDYWGQGTLVTVSS VL: DIQMTQSPSSLSASVGDRVTITCKSSQSLLNPSNQKNYLAWYQQKPGKAPKLLVYFASTRDSGVPSRFSGSGSGTDFTLTISSLQPEDFATYYCLQHFGTPPTFGQGTKLEIKR | 3
3 | H2L7 (antibody, human IgG1, kappa, V domains shown, Humanised anti-LAG-3 variant, HEK 293 6E expressed) VH: QVQLQESGPGLVKPSETLSLTCTVSGFSLTAYGVNWIRQPPGKGLEWIGMIWDDGSTDYNSALKSRVTISKDNSKNQVSLKLSSVTAADTAVYYCAREGDVAFDYWGQGTLVTVSS VL: DIQMTQSPSSLSASVGDRVTITCKSSQSLLNPSNQKNYLAWYQQKPGKAPKLLVYFASTRDSGVPSRFSGSGSGTDFTLTISSLQPEDFATYYCLQHFGTPPTFGQGTKLEIKR | 6
4 | J13L7 (antibody, human IgG1, kappa, V domains shown, Humanised anti-LAG-3 variant, HEK 293 6E expressed) VH: QVQLVQSGAEVKKPGSSVKVSCKASGGTFSAYGVNWVRQAPGQGLEWMGMIWDDGSTDYDSALKSRVTITADKSTSTAYMELSSLRSEDTAVYYCAREGDVAFDYWGQGTLVTVSS VL: DIQMTQSPSSLSASVGDRVTITCKSSQSLLNPSNQKNYLAWYQQKPGKAPKLLVYFASTRDSGVPSRFSGSGSGTDFTLTISSLQPEDFATYYCLQHFGTPPTFGQGTKLEIKR | 7

Continued, values first:

Row | Rank order of off-rates | Binder
5 | 4 | H4L7 (antibody, human IgG1, kappa, V domains shown, Humanised anti-LAG-3 variant, HEK 293 6E expressed) VH: QVQLQESGPGLVKPSETLSLTCTVSGFSLTAYGVNWIRQPPGKGLEWLGMIWDDGSTDYNSALKSRLTISKDNSKNQVSLKLSSVTAADTAVYYCAREGDVAFDYWGQGTLVTVSS VL: DIQMTQSPSSLSASVGDRVTITCKSSQSLLNPSNQKNYLAWYQQKPGKAPKLLVYFASTRDSGVPSRFSGSGSGTDFTLTISSLQPEDFATYYCLQHFGTPPTFGQGTKLEIKR
6 | 9 | J0L7 (antibody, human IgG1, kappa, V domains shown, Humanised anti-LAG-3 variant, HEK 293 6E expressed) VH: QVQLVQSGAEVKKPGSSVKVSCKASGGTFSAYGVNWVRQAPGQGLEWMGMIWDDGSTDYNSALKSRVTITADKSTSTAYMELSSLRSEDTAVYYCAREGDVAFDYWGQGTLVTVSS VL: DIQMTQSPSSLSASVGDRVTITCKSSQSLLNPSNQKNYLAWYQQKPGKAPKLLVYFASTRDSGVPSRFSGSGSGTDFTLTISSLQPEDFATYYCLQHFGTPPTFGQGTKLEIKR
7 | 8 | H7L7 (antibody, human IgG1, kappa, V domains shown, Humanised anti-LAG-3 variant, HEK 293 6E expressed) VH: QVQLQESGPGLVKPSETLSLTCTVSGGSISAYGVNWIRQPPGKGLEWIGMIWDDGSTDYDSALKSRVTISVDTSKNQFSLKLSSVTAADTAVYYCAREGDVAFDYWGQGTLVTVSS VL: DIQMTQSPSSLSASVGDRVTITCKSSQSLLNPSNQKNYLAWYQQKPGKAPKLLVYFASTRDSGVPSRFSGSGSGTDFTLTISSLQPEDFATYYCLQHFGTPPTFGQGTKLEIKR
8 | 5 | J11L7 (antibody, human IgG1, kappa, V domains shown, Humanised anti-LAG-3 variant, HEK 293 6E expressed) VH: QVQLVQSGAEVKKPGSSVKVSCKASGFSLTAYGVNWVRQAPGQGLEWMGMIWDDGSTDYDSALKSRVTITADKSTSTAYMELSSLRSEDTAVYYCAREGDVAFDYWGQGTLVTVSS VL: DIQMTQSPSSLSASVGDRVTITCKSSQSLLNPSNQKNYLAWYQQKPGKAPKLLVYFASTRDSGVPSRFSGSGSGTDFTLTISSLQPEDFATYYCLQHFGTPPTFGQGTKLEIKR
9 | 10 | H0L7 (antibody, human IgG1, kappa, V domains shown, Humanised anti-LAG-3 variant, HEK 293 6E expressed) VH: QVQLQESGPGLVKPSETLSLTCTVSGGSISAYGVNWIRQPPGKGLEWIGMIWDDGSTDYNSALKSRVTISVDTSKNQFSLKLSSVTAADTAVYYCAREGDVAFDYWGQGTLVTVSS VL: DIQMTQSPSSLSASVGDRVTITCKSSQSLLNPSNQKNYLAWYQQKPGKAPKLLVYFASTRDSGVPSRFSGSGSGTDFTLTISSLQPEDFATYYCLQHFGTPPTFGQGTKLEIKR
